In patent publication US20200408781A1:

Experiments:
[1] = target: p217+ tau in pooled CSF from AD subjects (human tau protein or tau fragments phosphorylated at T217 and/or T212) (human) (UniProt P10636); test: Simoa sandwich ELISA, pT3 capture; pooled AD CSF at 1:4 dilution
[2] = target: p217+ tau in pooled CSF from AD subjects (human tau protein or tau fragments phosphorylated at T217 and/or T212) (human) (UniProt P10636); test: Simoa sandwich ELISA, pT3 capture; pooled AD CSF at 1:8 dilution
[3] = target: p217+ tau in pooled CSF from AD subjects (human tau protein or tau fragments phosphorylated at T217 and/or T212) (human) (UniProt P10636); test: Simoa sandwich ELISA, pT3 capture; pooled AD CSF at 1:32 dilution
[4] = target: p217+ tau in pooled CSF from AD subjects (human tau protein or tau fragments phosphorylated at T217 and/or T212) (human) (UniProt P10636); test: Simoa sandwich ELISA, pT3 capture; pooled AD CSF at 1:64 dilution
[5] = target: p217+ tau in pooled CSF from AD subjects (human tau protein or tau fragments phosphorylated at T217 and/or T212) (human) (UniProt P10636); test: Simoa sandwich ELISA, pT3 capture; pooled AD CSF at 1:2 dilution
[6] = target: p217+ tau in pooled CSF from AD subjects (human tau protein or tau fragments phosphorylated at T217 and/or T212) (human) (UniProt P10636); test: Simoa sandwich ELISA, pT3 capture; pooled AD CSF at 1:16 dilution

p217+ tau in pooled CSF from AD subjects (human tau protein or tau fragments phosphorylated at T217 and/or T212) (human), sequence (P10636 other isoform, or with tags, fused parts or gaps limits assumed): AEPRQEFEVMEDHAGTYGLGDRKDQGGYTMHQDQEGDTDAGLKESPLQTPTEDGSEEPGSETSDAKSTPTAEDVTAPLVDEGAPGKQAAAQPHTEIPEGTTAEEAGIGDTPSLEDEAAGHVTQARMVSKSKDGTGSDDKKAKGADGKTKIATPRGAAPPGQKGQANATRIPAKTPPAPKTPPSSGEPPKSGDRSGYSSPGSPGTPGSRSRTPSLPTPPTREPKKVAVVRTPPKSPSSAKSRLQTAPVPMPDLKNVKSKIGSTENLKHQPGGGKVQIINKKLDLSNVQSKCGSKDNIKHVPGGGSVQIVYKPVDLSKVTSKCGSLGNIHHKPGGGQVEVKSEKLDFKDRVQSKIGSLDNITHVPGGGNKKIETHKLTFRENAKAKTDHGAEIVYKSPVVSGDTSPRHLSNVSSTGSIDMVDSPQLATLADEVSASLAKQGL

Substance “Quanterix tau 2.0 assay detector (antibody)” has a S/N (Signal/Noise) [1] of 262, a S/N (Signal/Noise) [2] of 147 and a S/N (Signal/Noise) [3] of 35. It also gave a S/N (Signal/Noise) [4] of 19, a S/N (Signal/Noise) [5] of 525 and a S/N (Signal/Noise) [6] of 75.
